Substrate: NC(=O)C1=CN([C@@H]2O[C@H](COP(=O)(O)OP(=O)(O)OC[C@H]3O[C@@H](n4cnc5c(N)ncnc54)[C@H](O)[C@@H]3O)[C@@H](O)[C@H]2O)C=CC1
Test: NADH-dependent CO2 reduction kinetics of RcFDH (Michaelis-Menten)
Assay type: biochemical, Rhodobacter capsulatus
Settings: Kpi buffer pH 7.0, absorbance at 365 nm
Protocol: To construct the Strep-Tag II-fused Rhodobacter capsulatu-derived formate dehydrogenase (RcFDH) expression plasmid, pTrcHis-RcFDH was used as a template. […] was performed to substitute the hexahistidine-tag for strep tag II. pTrcHis-RcFDH was amplified by PCR with the in-fusion primer (FW: SEQ ID NO: 9, RV: SEQ ID NO: 10). The PCR product was mixed with 5× In-Fusion HD Enzyme Premix to generate pTrcHis-strep-RcFDH. The E. coli MC1061 strain was transformed with pTrcHis-Strep-RcFDH, and R. eutropha HF210 [pGE771] strain was used as the Ralstonia eutropha-derived hydrogenase (ReSH)-expressing strain.
The enzyme reaction kinetics of RcFDH were measured for NADH-dependent reduction of CO2 to formate in the presence or absence of O2. The sealing cuvette was filled with 900 μL of Kpi buffer containing NADH and sealed; then, 100% CO2 and a mixed gas consisting of 4% O2 and 96 N2 (or 100% N2 for anaerobic conditions) were injected simultaneously for 30 min at 10 mL/min, respectively. RcFDH (2 mL, 2 μM) was purged with 10 mL/min N2 gas bubbling in a 10 mL sealing vial for 30 min to remove O2 from the air. The reaction was initiated by mixing 100 μL of 2 μM RcFDH with a gas-saturated solution in the sealing cuvette. The final concentration of NADH was varied from 0 to 1 mM.
All measurements were performed in triplicate based on the change in the absorbance at 365 nm in the cuvette, measured using a T60 UV-Vis spectrophotometer (PG Instruments Ltd, Lutterworth, UK). The change in the absorbance over 1 min was plotted using the Michaelis-Menten equation to calculate the kinetic parameters.
The present inventor investigated the enzymatic activities of ReSH and RcFDH in the presence or absence of O2. The NAD^+-dependent H2 oxidation reaction rate by ReSH was measured, and the Michaelis-Menten curve was fitted to calculate the kinetic parameters using Origin 2022 program (FIG. 3A). […] Similarly, the NADH-dependent CO2 reduction reaction rate by RcFDH was measured, and the Michaelis-Menten curve was fitted to calculate the kinetic parameters (FIG. 3B).

[1] = other: 0% O2, NADH varied 0 to 1 mM
[2] = other: 2% O2, NADH varied 0 to 1 mM

B1: Strep-Tag II-fused Rhodobacter capsulatus-derived formate dehydrogenase (RcFDH), SEQ ID NO: 6 to SEQ ID NO: 8 (Rhodobacter capsulatus SB 1003) (protein)
chain 1: MKIWLPCDAAAKACGAEAVLAALRLEAEKRGGALDIARNGSRGMIWLEPLLEVETPAGRIGFGPMTPADVPALFDALESHPKALGLVEEIPFFKRQTRLTFARCGRIEPLSLAQFAAAEGWAGLRKALKMTPAEVVEEVLASGLRGRGGAGFPTGIKWRTVAAAQADQKYIVCNVDEGDSGSFADRMLIEGDPFCLVEGMAIAGHAVGATRGYVYIRSEYPDAIAVMRAAIAMAKPFLAEAGFEMEVRVGAGAYVCGEETSLLNSLEGKRGTVRAKPPLPALKGLFGKPTVVNNLLSLAAVPWIIAHGAKAYESFGMDRSRGTIPLQIGGNVKRGGLFETGFGITLGELVEDICGGTASGRPVKAVQVGGPLGAYHPVSDYHLPFCYEQFAGQGGLVGHAGLVVHDDTADMLKLARFAMEFCAIESCGTCTPCRIGAVRGVEVIDRIAAGDASAMPLLDDLCQTMKLGSLCALGGFTPYPVQSAIRHFPADFPCAREAAE
chain 2: MKDLIIPPLDWTQDMGTPKREGAPVHLTIDGVEVTVPAGTSVLRAAAEAGISIPKLCATDNVEPVGSCRLCMVEIEGMRGTPTSCTTPVAPGMRVHTQTPQLQKLRRGVMELYISDHPLDCLTCAANGDCELQDMAGAVGLREVRYQAKDTHFARRDATGPNPRYIPKDNSNPYFSYDPAKCIVCMRCVRACEEVQGTFALTVMGRGFDARISPAAPDFLSSDCVSCGACVQACPTATLVEKSVERIGTPERKVVTTCAYCGVGCSFEAHMLGDQLVRMVPWKGGAANRGHSCVKGRFAYGYATHQDRILKPMIRDKITDPWREVNWTEALDFTATRLRALRDSHGADALGVITSSRCTNEETYLVQKLARAVFGTNNTDTCARVCHSPTGYGLKQTFGTSAGTQDFDSVEETDLALVIGANPTDGHPVFASRLRKRLRAGAKLIVVDPRRIDLLNTPHRGEAWHLQLKPGTNVAVMTAMAHVIVTEQIFDKRFIGDRCDWDEWADYAEFVANPEYAPEAVESLTGVPAGLLRQAARAYAAAPNAAIYYGLGVTEHSQGSTTVIAIANLAMMTGNIGRPGVGVNPLRGQNNVQGSCDMGSFPHEFPGYRHVSDDATRGLFERTWGVTLSSEPGLRIPNMLDAAVEGRFKALYVQGEDILQSDPDTRHVSAGLAAMDLVIVHDLFLNETANYAHVFLPGSTFLEKDGTFTNAERRINRVRRVMAPKAGFADWEVTQMLANALGAGWHYTHPSEIMAEIAATTPGFAAVTYEMLDARGSVQWPCNEKAPEGSPIMHVEGFVRGKGRFIRTAYLPTDEKTGPRFPLLLTTGRILSQYNVGAQTRRTENTVWHGEDRLEIHPTDAETRGIRDGDWVRLASRAGETTLRATVTDRVSPGVVYTTFHHPDTQANVVTTDTSDWATNCPEYKVTAVQVAASNGPSDWQQDYAAQAAAARRIEAAE
- Km [1]: 166 ± 30 µM
- kcat [1]: 0.703 ± 0.043 s⁻¹
- Km [2]: 141 ± 22 µM
- kcat [2]: 0.699 ± 0.035 s⁻¹
